Experimental data taken from patent publication US20220251236A1 (Boehringer Ingelheim, published 2022).

Columns and labels:
[1] = molecular target: T1, chicken egg white lysozyme (chicken, UniProt P00698 19-147); assay: SPR (Biacore T200), lysozyme coupled to CM5 chip, non-specific binding assay
T1 construct: also called Lysozyme (positive)
Experimental: The experiment was performed on a Biacore T200. The dilution, surface preparation, and binding experiments were performed at 25° C. in 1×HBS-EP buffer prepared from 10× HBS-EP. The flow rate for both the immobilization protocol and binding experiment was at 5 μL/min.
To prepare the surface for the non-specific binding experiment, chicken egg white lysozyme and trypsin inhibitor from glycine max soybean were coupled manually to a series S CM5 chip with the surface density of 3000-5000 RU using the amine coupling kit according to the manufacture instructions.
Samples were prepared at 1 μM in 1×HBS-EP buffer. The samples were injected over activated surfaces with a 10 min association and 10 min dissociation. The data was collected using Biacore T200 Control Software version 2.0.1 and analyzed using Biacore T200 Evaluation Software version 3.0.

[2] = molecular target: T2, human DLL3 (endogenous, on SCLC cell lines NCI-H82 and SHP77 and in SCLC tissue) (human, UniProt Q9NYJ7 27-618); assay: cell-based or functional assay
T2 sequence (looked up): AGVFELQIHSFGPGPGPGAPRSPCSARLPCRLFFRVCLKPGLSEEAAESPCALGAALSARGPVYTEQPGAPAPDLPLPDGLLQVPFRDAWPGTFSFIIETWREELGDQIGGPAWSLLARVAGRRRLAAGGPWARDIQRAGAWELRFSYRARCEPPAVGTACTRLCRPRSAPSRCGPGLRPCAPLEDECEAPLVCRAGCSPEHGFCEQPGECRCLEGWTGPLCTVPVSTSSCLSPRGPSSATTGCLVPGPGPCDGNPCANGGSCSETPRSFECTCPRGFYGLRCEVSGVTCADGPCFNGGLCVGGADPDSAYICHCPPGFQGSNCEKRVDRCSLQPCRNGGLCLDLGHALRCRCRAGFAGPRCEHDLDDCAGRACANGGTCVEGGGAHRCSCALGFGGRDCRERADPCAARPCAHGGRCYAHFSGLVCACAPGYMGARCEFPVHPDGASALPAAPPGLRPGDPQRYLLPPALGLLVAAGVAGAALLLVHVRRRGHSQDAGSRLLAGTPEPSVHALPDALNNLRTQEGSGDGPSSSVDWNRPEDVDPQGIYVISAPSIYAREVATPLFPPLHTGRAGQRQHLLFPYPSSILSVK

[3] = molecular target: T3, EGF6+MEMBRANE PROXIMAL PEPTIDE; assay: flow cytometry on HEK293 cells expressing the DLL3 subdomain construct, 1.6 nM binder, PE anti-human secondary, control: secondary antibody only
T3 construct: also called Hu DLL3 EGF6+membrane proximal peptide on HEK293 cells
T3 membrane-anchored DLL3 subdomain construct: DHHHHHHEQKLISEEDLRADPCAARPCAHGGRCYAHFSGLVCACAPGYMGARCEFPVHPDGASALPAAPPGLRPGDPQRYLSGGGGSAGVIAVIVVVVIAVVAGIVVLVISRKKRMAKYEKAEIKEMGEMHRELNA
Procedure, shortened: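 Binders tested on HEK293 cells displaying the DLL3 subdomain construct; bound molecules detected by flow cytometry using PE-conjugated anti-human secondary antibody. Negative control: cells with secondary antibody only.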

[4] = molecular target: T2, human DLL3 (endogenous, on SCLC cell …); assay: cell-based or functional assay; remark: listed apart in the source
[5] = molecular target: T4, Cyno DLL3-His (cynomolgus monkey, UniProt Q9NYJ7 27-492 (human entry)); assay: SPR; ratio of the KD values for human and cyno DLL3
T4 construct: also called cy DLL3; recombinant cyno DLL3-ECD
T4 chain: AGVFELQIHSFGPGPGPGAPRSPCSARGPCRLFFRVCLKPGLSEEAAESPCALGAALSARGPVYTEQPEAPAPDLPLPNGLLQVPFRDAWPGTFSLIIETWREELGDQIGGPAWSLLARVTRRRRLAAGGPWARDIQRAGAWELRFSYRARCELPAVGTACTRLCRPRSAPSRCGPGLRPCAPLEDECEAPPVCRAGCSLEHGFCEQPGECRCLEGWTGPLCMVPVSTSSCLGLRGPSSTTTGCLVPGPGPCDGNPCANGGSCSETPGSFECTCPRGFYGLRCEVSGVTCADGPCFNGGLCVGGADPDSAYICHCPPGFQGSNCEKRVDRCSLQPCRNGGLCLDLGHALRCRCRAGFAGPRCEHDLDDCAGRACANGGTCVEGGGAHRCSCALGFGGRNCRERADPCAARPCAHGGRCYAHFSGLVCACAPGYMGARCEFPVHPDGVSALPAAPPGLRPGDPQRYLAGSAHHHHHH
Experimental: The binding affinity of purified DLL3/CD3 bispecific constructs for recombinant human and cyno DLL3-ECD and Fc-fusion proteins of human and cyno CD3 εγ subunits was determined by Surface Plasmon Resonance (SPR), using a ProteOn XPR36 instrument (Bio-Rad). The running buffer and all dilutions (except where stated) were done in PBS-T-EDTA. The GLM sensor chip (Bio-Rad) was normalized and pre-conditioned as per the manufacturer's recommendations. The sensor chip was activated with equal mixture of EDC/s-NHS in the horizontal direction for 300 sec at a flow rate of 30 ul/min and immobilized with protein A/G (20 ug/ml in 10 mM acetate pH 4.5) in the horizontal direction for 300 sec at a flowrate of 30 ul/min resulting in ˜5000 RU of protein A/G on the surface. The sensor chip was deactivated with 1M ethanolamine HCl in the horizontal direction for 300 sec at a flowrate of 30 μl/min.
For binding kinetic determination to DLL3, bispecific molecules were captured individually on the protein A/G surface vertically for 250 sec at a flowrate of 25 μl/min. The baseline was stabilized by injecting PBS-T-EDTA for 60 sec at a flowrate of 40 μl/min horizontally. The analyte (hu DLL3 or cy DLL3) was injected horizontally over the captured antibody for 600 sec at a flowrate of 40 μl/min and a dissociation for 2700 sec.
The inter spot (interactions with sensor surface) and blank (PBS-T-EDTA) were subtracted from the raw data.

T1 sequence (P00698 19-147): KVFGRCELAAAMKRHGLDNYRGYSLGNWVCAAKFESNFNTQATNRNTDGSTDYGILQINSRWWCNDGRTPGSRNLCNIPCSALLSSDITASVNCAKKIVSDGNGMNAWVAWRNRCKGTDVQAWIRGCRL

B1: DLL3#3/CD3#2 (bispecific antibody, human IgG1, kappa, lambda, L234A L235A)
chain 1: DIQMTQSPSAMSASVGDRVTITCRASQGISNYLVWFQQKPGKAPKRLIYAVSSLYSGVPSRFSGSGSGTEFTLTISSLQPEDFATYYCLQHDSYPYTFGQGTKLEIKRTVAAPSVFIFPPSDEQLKSGTASVVCLLNNFYPREAKVQWKVDNALQSGNSQESVTEQDSKDSTYSLSSTLTLSKADYEKHKVYACEVTHQGLSSPVTKSFNRGECGGGGSEGKSSGSGSESKSTEGKSSGSGSESKSTGGGGSQVQLVQSGAEVKKPGASVKVSCKASGYTFTSYYVHWVRQAPGQGLEWMVIINPGGGTTSYAQKFLGRVTMTRDTSTNTVYMELKSLRSEDTAVYYCARGEAVTGNYFYYGMDVWGQGTTVTVSSASTKGPSVFPLAPSSKSTSGGTAALGCLVKDYFPEPVTVSWNSGALTSGVHTFPAVLQSSGLYSLSSVVTVPSSSLGTQTYICNVNHKPSNTKVDKRVEPKSCDKTHTCPPCPAPEAAGGPSVFLFPPKPKDTLMISRTPEVTCVVVDVSHEDPEVKFNWYVDGVEVHNAKTKPREEQYNSTYRVVSVLTVLHQDWLNGKEYKCKVSNKALPAPIEKTISKAKGQPREPQVYTLPPSREEMTKNQVSLWCLVKGFYPSDIAVEWESNGQPENNYKTTPPVLDSDGSFFLYSKLTVDKSRWQQGNVFSCSVMHEALHNHYTQKSLSLSPG
chain 2: EAVVTQEPSLTVSPGGTVTLTCRSSTGAVTTSNYANWVQEKPGQLPRGLIGGTNKRAPWVPARFSGSLLGGKAALTLSGAQPEDEAEYFCALWYSNLWVFGGGTKLTVLGQPKAAPSVTLFPPSSEELQANKATLVCLISDFYPGAVKVAWKADGSPVNTGVETTTPSKQSNNKYAASSYLSLTPEQWKSHRSYSCQVTHEGSTVEKTVAPAECSGGGGSEGKSSGSGSESKSTEGKSSGSGSESKSTGGGGSEVQLVESGGGLVQPGGSLKLSCAASGFTFNTYAMNWVRQAPGKGLEWVARIRSKYINYATYYADSVKDRFTISRDDSKNTAYLQMNNLKTEDTAVYYCVRHGNFGNSYVSWFAYWGQGTLVTVSAASTKGPSVFPLAPSSKSTSGGTAALGCLVKDYFPEPVTVSWNSGALTSGVHTFPAVLQSSGLYSLSSVVTVPSSSLGTQTYICNVNHKPSNTKVDKRVEPKSCDKTHTCPPCPAPEAAGGPSVFLFPPKPKDTLMISRTPEVTCVVVDVSHEDPEVKFNWYVDGVEVHNAKTKPREEQYNSTYRVVSVLTVLHQDWLNGKEYKCKVSNKALPAPIEKTISKAKGQPREPQVYTLPPSREEMTKNQVSLSCAVKGFYPSDIAVEWESNGQPENNYKTTPPVLDSDGSFFLVSKLTVDKSRWQQGNVFSCSVMHEALHNRFTQKSLSLSPG
notes: Heterodimer of one DLL3 chain and one CD3 chain (scFab-Fc, knob-in-hole)
- binding result [1]: no binding (tested: 1 µM)
- EC90, 72 hour cytotoxicity assay (LDH release), non-stimulated PBMCs as effector cells, NCI-H82 target cells [2]: 3.9 nM
- EC90, 72 hour cytotoxicity assay (LDH release), non-stimulated PBMCs as effector cells, SHP77 target cells [2]: 16.5 nM
- binding result [3]: binds
- EC90, 72 hour cytotoxicity assay, purified T cells as effector cells, NCI-H82 target cells [4]: 2.5 nM
- EC90, 72 hour cytotoxicity assay, purified T cells as effector cells, SHP77 target cells [4]: 3 nM
- Affinity gap KD hu/cyno DLL3 [5]: 1
